# Source: patent US8492329B2, “Bioactive peptides and methods of using same” (Compugen Ltd., priority 2007, dated 2013)
# Entries after “also recorded” stand apart in the source; their conditions may differ. No end group written: not given here.
# How the values were obtained:
# LGR7 (RXFP1) = biological target: T1, LGR7 (RXFP1) (Homo sapiens, UniProt Q9HBX9); assay: ACEA RT-CES cell impedance, LGR7 transfected CHO-K1 cells; type: cell-based; set-up: expressed in transfected cells; host or cells: CHO-K1 (transient); conditions: for dose response of normalized cell index: end point of the experiment, FIG. 16-19; for affinity to LGR7 compared with other ligands: from cell impedance dose response; for effect on cell impedance (normalized cell index): P74C13V 10 uM, H2 Relaxin 1 uM, FIG. 13
# T1 sequence (Q9HBX9 1-757): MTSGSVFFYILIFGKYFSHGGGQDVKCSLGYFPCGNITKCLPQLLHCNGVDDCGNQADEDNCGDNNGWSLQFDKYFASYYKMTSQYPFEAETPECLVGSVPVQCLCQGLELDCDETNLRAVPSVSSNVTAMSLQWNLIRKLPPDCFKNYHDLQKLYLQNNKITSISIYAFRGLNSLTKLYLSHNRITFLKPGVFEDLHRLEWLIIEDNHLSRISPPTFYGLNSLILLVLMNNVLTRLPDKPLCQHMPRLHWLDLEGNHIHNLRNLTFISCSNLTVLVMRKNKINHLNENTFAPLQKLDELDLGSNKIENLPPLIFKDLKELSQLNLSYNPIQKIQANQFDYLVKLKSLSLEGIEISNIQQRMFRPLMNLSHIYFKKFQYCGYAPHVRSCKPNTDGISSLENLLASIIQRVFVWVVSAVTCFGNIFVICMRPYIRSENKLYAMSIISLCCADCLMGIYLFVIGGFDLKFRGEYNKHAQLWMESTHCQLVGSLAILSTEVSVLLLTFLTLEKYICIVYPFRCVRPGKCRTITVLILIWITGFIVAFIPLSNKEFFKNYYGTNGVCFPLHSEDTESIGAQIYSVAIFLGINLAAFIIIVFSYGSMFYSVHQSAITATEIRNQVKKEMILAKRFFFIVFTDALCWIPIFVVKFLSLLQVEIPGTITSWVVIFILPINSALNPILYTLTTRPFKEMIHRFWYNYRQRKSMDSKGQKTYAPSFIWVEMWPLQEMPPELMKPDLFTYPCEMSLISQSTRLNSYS
# From the text: (§1) ACEA RT-CES screen is a noninvasive and label-free assay for GPCRs that can be used with both engineered and nonengineered cell lines. The assay is based on using cell-electrode impedance to measure minute changes in cellular morphology as a result of ligand-dependent GPCR activation and is described in Naichen Yu, et al., Anal. Chem., 78 (1), 35-43, 2006. 10.1021/ac051695v S0003-2700(05)01695-1. The Rho family of small GTPases, which include Rho, Rac, and CDC42, are well-characterized effectors of oncogenes, growth factor and adhesion-mediated signaling pathways and are not classically thought of as being key effectors for GPCRs. Rho family GTPases participate in a number of cellular processes, the main one being regulation and maintenance of specific structures within the actin cytoskeleton framework. […] The current view of the actin cytoskeleton is that of a dynamic and plastic system that is a reflection and manifestation of the intracellular signaling and not simply a static structure designed to maintain cellular architecture. Since GPCRs couple to the actin cytoskeletal network and induce very defined morphological changes, it is possible to harness this information as a functional and biologically relevant readout for GPCRs.
# (§2) ACEA biosciences; has designed electronic cell sensor arrays embedded in the bottom of the well of microtiter plates that are capable of measuring minute changes in cell morphology. The electronic sensors measure changes in cell-substrate impedance as a result of the disruption of the ionic environment due to the presence of cell and cell morphology dynamics. The main advantages offered by using cell-substrate impedance and cell morphology as a readout are that both exogenously expressed and endogenous receptors can be assayed without the need for engineering the cell with promiscuous G proteins and reporters or labeling the cells with dyes. In addition, since the readout is noninvasive, multiple stimulations with the same ligand or different ligands can be performed to assess events such as desensitization and receptor cross-talk. Finally, another major aspect of using cell-substrate impedance and cell morphology as a readout is that potentially all GPCRs, regardless of the signaling pathways, can be functionally monitored.
# Peptides were synthesized by the solid phase peptide synthesis (SPPS) method, cleaved from the resin, and purified by RP-HPLC unless stated otherwise. The peptide's identity was verified by mass spectrometry. Final purity of peptide was >90% as measured by RP-HPLC. Peptides were diluted in Water (DDW—high purity) containing 0.1% BSA. In some cases peptides were dissolved in Tris-HCl buffer (pH8.2). In other cases either the addition of 1% DMSO or a brief sonication was required. All plates were stored at −80 C until use.
# Cells: CHOk1 cell-line (ATCC CCL-61). Cells were maintained and propagated in F-12 HAM nutrient mix (Gibco. Cat# 21765-029) supplemented with 10% HI-FBS (Biological Ind. Cat#04-121-1), 2.5 mL of 200 mm L-Glutamine in Saline Solution (Biological Ind. Cat#03-020-1), 5 mL of Penicillin-Streptomycin Solution 10000/mL Penicillin G & 10 mg/mL Streptomycin Sulfate (Biological Ind. Cat#03-031-1).
# One day before the transfection 2×10^6 CHO-k1 cells were plated in T75 flask containing 10 mL of complete growth medium. On the transfection date, FUGENE6 transfection reagent was warmed to ambient temperature by 15 minutes incubation at room temperature and mixed prior to use by vortex.
# The transfected DNA mix was prepared in another sterile microfuge tube; Total of 2 μg plasmid DNA mixture which is composed of […] of the target GPCR plasmid and of 2 μg of pIRES plasmid carrying eGFP reporter gene.
# The plasmids DNA mixture was then added to the transfection reagent tube and incubated 35 min at RT with gently tapping once every 5 minutes to mix the contents. The DNA-FuGene complex was added drop wise to flask and spread by gentle swirling. […]
# LGR8 (RXFP2) = LGR8 (RXFP2) (Homo sapiens, UniProt Q8WXD0); assay: ACEA RT-CES cell impedance, LGR8 transfected CHO-K1 cells; type: cell-based; set-up: expressed in transfected cells; host or cells: CHO-K1 (transient); conditions: P74C13V 10 uM, P59C13V 10 uM, H2 Relaxin 1 uM, FIG. 14
# Chain of LGR8 (RXFP2) (Q8WXD0 whole entry): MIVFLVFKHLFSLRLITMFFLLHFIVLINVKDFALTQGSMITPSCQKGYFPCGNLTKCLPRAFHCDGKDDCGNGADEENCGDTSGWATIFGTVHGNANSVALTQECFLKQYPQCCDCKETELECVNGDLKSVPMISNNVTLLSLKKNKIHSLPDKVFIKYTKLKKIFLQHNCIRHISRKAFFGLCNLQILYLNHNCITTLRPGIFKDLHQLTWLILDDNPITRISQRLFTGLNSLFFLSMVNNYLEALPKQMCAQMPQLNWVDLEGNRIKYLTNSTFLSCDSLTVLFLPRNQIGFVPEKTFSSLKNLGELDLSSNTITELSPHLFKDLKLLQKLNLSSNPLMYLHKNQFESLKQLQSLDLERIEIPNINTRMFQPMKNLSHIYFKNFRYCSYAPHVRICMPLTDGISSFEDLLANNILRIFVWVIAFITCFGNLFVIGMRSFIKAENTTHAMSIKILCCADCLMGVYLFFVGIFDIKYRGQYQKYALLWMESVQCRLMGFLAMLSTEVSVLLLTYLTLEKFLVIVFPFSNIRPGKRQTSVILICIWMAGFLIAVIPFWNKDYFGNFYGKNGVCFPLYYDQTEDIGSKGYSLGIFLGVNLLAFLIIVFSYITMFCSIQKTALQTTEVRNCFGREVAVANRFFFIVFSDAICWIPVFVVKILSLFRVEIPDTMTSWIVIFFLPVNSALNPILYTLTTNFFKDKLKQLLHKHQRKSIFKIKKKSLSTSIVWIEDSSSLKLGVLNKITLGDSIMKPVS
# From the text: as §1
# as §2, with “Finally, another major aspect of using cell-substrate impedance and cell morphology as a readout is that potentially all GPCRs, regardless of the signaling pathways, can be functionally monitored.” left out
Substance,dose response of normalized cell index (LGR7 (RXFP1)),affinity to LGR7 compared with other ligands (LGR7 (RXFP1)),effect on cell impedance (normalized cell index) (LGR8 (RXFP2)),effect on cell impedance (normalized cell index) (LGR7 (RXFP1))
AYAAFSV-Amide (AYAAFSV-NH2) [Peptide P59-S-Amide],moderate dose response for the high concentrations; also recorded: no dose response was demonstrated,–,–,–
GQKGQVGPPGAAVRRAYAAFSV [Peptide P59C13V],moderate dose response for the high concentrations; also recorded: mild dose dependent activation,significantly lower than that of H2 Relaxin or P74C13V,no significant effect as compared to BSA,–
GQKGQVGPPGAAVRRAYAAFSVGRRAYAAFSV-OH [Peptide P74C13V],clear dose dependent activation,lower than that of H2 Relaxin,strong cellular effect,stronger than the effect of H2 Relaxin
"H2 Relaxin: H2 Relaxin (ACS), positive control, known ligand of LGR7 (RXFP1) [reference compound]",clear dose dependent activation,–,strong cellular effect,capable of activating a cellular response
